The record followed here is the supplement of paper PMC10567573.

The chains are these.
B1: PDS5B (parent)
chain: ITYPPGVKEISDKISKEEMVRRLK
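Also: lentivirally expressed fusions sorted by FACS into six bins by GFP to DsRed ratio, PSI derived from sequencing read proportions per bin multiplied by bin number.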

In the series the parent is B1. In words: protein stability index of a GFP-peptide fusion (GPS, HEK-293T) (PSI 1-6); higher = more stable. As to conditions: c terminus: a fixed tail appended.
For ITKPPGVKEISDKISKEEMVRRLK, the protein stability index is 4.64.
On to ITAPPGVKEISDKISKEEMVRRLK, for which the protein stability index came to 4.48.
The figure for ITEPPGVKEISDKISKEEMVRRLK is 4.47; for ITFPPGVKEISDKISKEEMVRRLK it is 3.85.
In the case of ITYPPGVKEISDKISKEEGVRRLK it was 4.29; in that of ITYPPGVKEISDKISKEEFVRRLK, 3.26; in that of ITYPPGVKEISDKISKEERVRRLK, 4.34.
In the case of ITYPPGVKEISDKISKEEKVRRLK it was 4.54.
As for ITYPPGVKEISDKISKEESVRRLK, the protein stability index was 5.02.
In the case of ITYPPGVKEISDKISKEEVVRRLK it was 4.65; in that of CTYPPGVKEISDKISKEEMVRRLK, 4.63.
In the case of DTYPPGVKEISDKISKEEMVRRLK it was 4.99; in that of PTYPPGVKEISDKISKEEMVRRLK, 4.78.
Turning to YTYPPGVKEISDKISKEEMVRRLK, the protein stability index was 3.78.
As for ATYPPGVKEISDKISKEEMVRRLK, the protein stability index came out at 5.15.
In the case of ITYPPGVKEISDKISKEEMVRRLT it was 4.13.
Consider ITYPPGVKEISDKISKEEMVRRLR, for which the protein stability index is 4.2.
On to ITYPPGVKEISDKISKEEMVRRLL, for which the protein stability index worked out at 2.81.
The figure for ITYPPGVKEISDKISKEEMVRRLY is 2.67; for ITYPPGVKEISDKISKEEMVRRLE it is 4.38; for ITYPPGVKEISDKISKEEMVRRLN it is 3.77.
In the case of ITYPPGVKEISDKISKEGMVRRLK it was 3.86; in that of ITYPPGVKEISDKISKESMVRRLK, 3.21.
As for ITYPPGVKEISDKISKEVMVRRLK, the protein stability index came to 3.6.
Take ITYPPGVKEISDKISKEMMVRRLK: the protein stability index came out at 3.12.
In the case of ITYPGGVKEISDKISKEEMVRRLK it was 3.67; in that of ITYPIGVKEISDKISKEEMVRRLK, 4.29; in that of ITYPRGVKEISDKISKEEMVRRLK, 3.81.
In the case of ITYPCGVKEISDKISKEEMVRRLK, the protein stability index was 3.62.
The figure for ITYPLGVKEISDKISKEEMVRRLK is 3.7; for ITYPPGVKEISDKISKEEMVRRDK it is 5.12.
The figure for ITYPPGVKEISDKISKEEMVRRSK is 5.11; for ITYPPGVKEISDKISKEEMVRRYK it is 3.7.
Take ITYPPGVMEISDKISKEEMVRRLK: the protein stability index worked out at 3.46.
The figure for ITYPPGVREISDKISKEEMVRRLK is 3.99.
In the case of ITYPPGVFEISDKISKEEMVRRLK it was 3.15; in that of ITYPPGVAEISDKISKEEMVRRLK, 4.5.
In the case of ITYPPGVNEISDKISKEEMVRRLK it was 3.83.
In the case of ITYPPGVKCISDKISKEEMVRRLK, the protein stability index worked out at 3.13.
In the case of ITYPPGVKYISDKISKEEMVRRLK, the protein stability index was 2.79.
The figure for ITYPPGVKAISDKISKEEMVRRLK is 4.16.
For the variant ITYPPGPKEISDKISKEEMVRRLK, the protein stability index stood at 3.47.
The figure for ITYPPGHKEISDKISKEEMVRRLK is 4.04; for ITYPPGMKEISDKISKEEMVRRLK it is 4.06; for ITYPPGYKEISDKISKEEMVRRLK it is 3.77.
In the case of ITYPPGKKEISDKISKEEMVRRLK it was 4.55.
In the case of IEYPPGVKEISDKISKEEMVRRLK it was 3.86; in that of IIYPPGVKEISDKISKEEMVRRLK, 2.83.
Turning to IRYPPGVKEISDKISKEEMVRRLK, the protein stability index worked out at 3.57.
For the variant IHYPPGVKEISDKISKEEMVRRLK, the protein stability index was found to be 3.79.
The figure for ISYPPGVKEISDKISKEEMVRRLK is 3.72.
The figure for ITYPPGVKEISDKIAKEEMVRRLK is 4.27.
In the case of ITYPPGVKEISDKITKEEMVRRLK it was 3.66; in that of ITYPPGVKEISDKIIKEEMVRRLK, 2.73; in that of ITYPPGVKEISDKIDKEEMVRRLK, 4.26.
For the variant ITYPPLVKEISDKISKEEMVRRLK, the protein stability index is 3.65.
On to ITYPPVVKEISDKISKEEMVRRLK, for which the protein stability index came to 3.27.
The figure for ITYPPHVKEISDKISKEEMVRRLK is 4.18; for ITYPPTVKEISDKISKEEMVRRLK it is 4.31.
The figure for ITYPPGVKEISTKISKEEMVRRLK is 3.69; for ITYPPGVKEISFKISKEEMVRRLK it is 2.71; for ITYPPGVKEISKKISKEEMVRRLK it is 3.43.
In the case of ITYPPGVKEISLKISKEEMVRRLK it was 3.18.
Take ITYPPGVKEISVKISKEEMVRRLK: the protein stability index worked out at 3.3.
In the case of ITYPPGVKEISPKISKEEMVRRLK it was 3.7; in that of ITYPPGVKEISDKISKEEMLRRLK, 3.49.
ITYPPGVKEISDKISKEEMDRRLK: the protein stability index is 5.06.
In the case of ITYPPGVKEISDKISKEEMQRRLK it was 4.03; in that of ITYPPGVKEISDKISKEEMIRRLK, 3.42; in that of ITYPPGVKEISDKISKEEMCRRLK, 3.74.
The figure for ITYPPGVKEISDKISKEEMYRRLK is 4.2.
The figure for ITYPPGVKEISDKISKEEMVQRLK is 4.28; for ITYPPGVKEISDKISKEEMVNRLK it is 3.44.
On to ITYPPGVKEISDKISKEEMVKRLK, for which the protein stability index is 3.34.
The figure for ITYPPGVKEISDKISKEEMVVRLK is 4.11.
In the case of ITYPPGVKEISDKISKEEMVFRLK it was 3.85; in that of ITYPPGVKEISDKISKEEMVTRLK, 4.63; in that of ITYPPGVKEISDKISKEEMVCRLK, 3.96.
In the case of ITYPPGVKEIWDKISKEEMVRRLK it was 2.67; in that of ITYPPGVKEIFDKISKEEMVRRLK, 3.3; in that of ITYPPGVKEIKDKISKEEMVRRLK, 4.72.
With ITYPPGVKEIQDKISKEEMVRRLK, the protein stability index came to 4.16.
In the case of ITYPPGVKEIHDKISKEEMVRRLK it was 4.04; in that of ITYPPGVKEIMDKISKEEMVRRLK, 2.35; in that of ITYPPGVKESSDKISKEEMVRRLK, 4.53.
In the case of ITYPPGVKEISDKISTEEMVRRLK it was 3.06.
Take ITYPPGVKEISDKISEEEMVRRLK: the protein stability index was determined as 3.87.
In the case of ITYPPGVKEISDKISIEEMVRRLK it was 2.85; in that of ITYPPGVKEISDKISAEEMVRRLK, 3.92.
As for ITYPPGVKEISDKISKEEMVRWLK, the protein stability index was 2.33.
For ITYPPGVKEISDKISKEEMVRNLK, the protein stability index was determined as 4.54.
In the case of ITYPPGVKEISDKISKEEMVRFLK it was 3.85; in that of ITYPPGVKEISDKISKEEMVRLLK, 2.28.
For the variant ITYPPGVKEISDKISKEEMVRKLK, the protein stability index is 3.86.
